T1: P3028 (VFDEFKPLVEEPQNLIK, SEQ ID NO: 185), His-tagged (human)
T1 construct: Synthetic fragment of human serum albumin (positions 397-413); used in solution as His-tagged peptide PGE73; also called PGE73; not shown: His-tag
T1 peptide: VFDEFKPLVEEPQNLIK

B1: KKLDTFFVKLFLFTER (SEQ ID NO: 522) (peptide)
peptide: KKLDTFFVKLFLFTER
B2: KKLDTFFVKLGLFTER (SEQ ID NO: 99) (peptide)
peptide: KKLDTFFVKLGLFTER
B3: KKLDTFFVKLHLFTER (SEQ ID NO: 345) (peptide)
peptide: KKLDTFFVKLHLFTER
B4: KKLDTFFVKLILFTER (SEQ ID NO: 505) (peptide)
peptide: KKLDTFFVKLILFTER
B5: KKLDTFFVKLKLFTER (SEQ ID NO: 473) (peptide)
peptide: KKLDTFFVKLKLFTER
B6: KKLDTFFVKLMLFTER (SEQ ID NO: 346) (peptide)
peptide: KKLDTFFVKLMLFTER
B7: KKLDTFFVKLNLFTER (SEQ ID NO: 347) (peptide)
peptide: KKLDTFFVKLNLFTER
B8: KKLDTFFVKLPLFTER (SEQ ID NO: 470) (peptide)
peptide: KKLDTFFVKLPLFTER
B9: KKLDTFFVKLQLFTER (SEQ ID NO: 348) (peptide)
peptide: KKLDTFFVKLQLFTER
B10: KKLDTFFVKLRLFTER (SEQ ID NO: 464) (peptide)
peptide: KKLDTFFVKLRLFTER
B11: KKLDTFFVKLSAFTER (SEQ ID NO: 350) (peptide)
peptide: KKLDTFFVKLSAFTER
B12: KKLDTFFVKLSCFTER (SEQ ID NO: 455) (peptide)
peptide: KKLDTFFVKLSCFTER
B13: KKLDTFFVKLSFFTER (SEQ ID NO: 422) (peptide)
peptide: KKLDTFFVKLSFFTER
B14: KKLDTFFVKLSGFTER (SEQ ID NO: 431) (peptide)
peptide: KKLDTFFVKLSGFTER
B15: KKLDTFFVKLSHFTER (SEQ ID NO: 351) (peptide)
peptide: KKLDTFFVKLSHFTER
B16: KKLDTFFVKLSIFTER (SEQ ID NO: 352) (peptide)
peptide: KKLDTFFVKLSIFTER
B17: KKLDTFFVKLSKFTER (SEQ ID NO: 438) (peptide)
peptide: KKLDTFFVKLSKFTER
B18: KKLDTFFVKLSLATER (SEQ ID NO: 361) (peptide)
peptide: KKLDTFFVKLSLATER
B19: KKLDTFFVKLSLCTER (SEQ ID NO: 362) (peptide)
peptide: KKLDTFFVKLSLCTER
B20: KKLDTFFVKLSLFAER (SEQ ID NO: 489) (peptide)
peptide: KKLDTFFVKLSLFAER
B21: KKLDTFFVKLSLFCER (SEQ ID NO: 520) (peptide)
peptide: KKLDTFFVKLSLFCER
B22: KKLDTFFVKLSLFFER (SEQ ID NO: 376) (peptide)
peptide: KKLDTFFVKLSLFFER
B23: KKLDTFFVKLSLFGER (SEQ ID NO: 377) (peptide)
peptide: KKLDTFFVKLSLFGER
B24: KKLDTFFVKLSLFHER (SEQ ID NO: 378) (peptide)
peptide: KKLDTFFVKLSLFHER
B25: KKLDTFFVKLSLFIER (SEQ ID NO: 379) (peptide)
peptide: KKLDTFFVKLSLFIER
B26: KKLDTFFVKLSLFKER (SEQ ID NO: 517) (peptide)
peptide: KKLDTFFVKLSLFKER
B27: KKLDTFFVKLSLFLER (SEQ ID NO: 380) (peptide)
peptide: KKLDTFFVKLSLFLER
B28: KKLDTFFVKLSLFMER (SEQ ID NO: 381) (peptide)
peptide: KKLDTFFVKLSLFMER
B29: KKLDTFFVKLSLFNER (SEQ ID NO: 382) (peptide)
peptide: KKLDTFFVKLSLFNER
B30: KKLDTFFVKLSLFPER (SEQ ID NO: 383) (peptide)
peptide: KKLDTFFVKLSLFPER
B31: KKLDTFFVKLSLFQER (SEQ ID NO: 493) (peptide)
peptide: KKLDTFFVKLSLFQER
B32: KKLDTFFVKLSLFRER (SEQ ID NO: 33) (peptide)
peptide: KKLDTFFVKLSLFRER
B33: KKLDTFFVKLSLFSER (SEQ ID NO: 384) (peptide)
peptide: KKLDTFFVKLSLFSER
B34: KKLDTFFVKLSLFTDR (SEQ ID NO: 387) (peptide)
peptide: KKLDTFFVKLSLFTDR
B35: KKLDTFFVKLSLFTEF (SEQ ID NO: 388) (peptide)
peptide: KKLDTFFVKLSLFTEF
B36: KKLDTFFVKLSLFTEH (SEQ ID NO: 528) (peptide)
peptide: KKLDTFFVKLSLFTEH
B37: KKLDTFFVKLSLFTEK (SEQ ID NO: 389) (peptide)
peptide: KKLDTFFVKLSLFTEK
B38: KKLDTFFVKLSLFTEM (SEQ ID NO: 529) (peptide)
peptide: KKLDTFFVKLSLFTEM
B39: KKLDTFFVKLSLFTEN (SEQ ID NO: 390) (peptide)
peptide: KKLDTFFVKLSLFTEN
B40: KKLDTFFVKLSLFTET (SEQ ID NO: 392) (peptide)
peptide: KKLDTFFVKLSLFTET
B41: KKLDTFFVKLSLFTEV (SEQ ID NO: 521) (peptide)
peptide: KKLDTFFVKLSLFTEV
B42: KKLDTFFVKLSLFTEY (SEQ ID NO: 393) (peptide)
peptide: KKLDTFFVKLSLFTEY
B43: KKLDTFFVKLSLFTHR (SEQ ID NO: 478) (peptide)
peptide: KKLDTFFVKLSLFTHR
B44: KKLDTFFVKLSLFTKR (SEQ ID NO: 471) (peptide)
peptide: KKLDTFFVKLSLFTKR
B45: KKLDTFFVKLSLFTLR (SEQ ID NO: 525) (peptide)
peptide: KKLDTFFVKLSLFTLR
B46: KKLDTFFVKLSLFTMR (SEQ ID NO: 524) (peptide)
peptide: KKLDTFFVKLSLFTMR
B47: KKLDTFFVKLSLFTPR (SEQ ID NO: 439) (peptide)
peptide: KKLDTFFVKLSLFTPR
B48: KKLDTFFVKLSLFTQR (SEQ ID NO: 450) (peptide)
peptide: KKLDTFFVKLSLFTQR
B49: KKLDTFFVKLSLFTRR (SEQ ID NO: 531) (peptide)
peptide: KKLDTFFVKLSLFTRR
B50: KKLDTFFVKLSLFTYR (SEQ ID NO: 459) (peptide)
peptide: KKLDTFFVKLSLFTYR
B51: KKLDTFFVKLSLFVER (SEQ ID NO: 385) (peptide)
peptide: KKLDTFFVKLSLFVER
B52: KKLDTFFVKLSLFWER (SEQ ID NO: 386) (peptide)
peptide: KKLDTFFVKLSLFWER
B53: KKLDTFFVKLSLFYER (SEQ ID NO: 514) (peptide)
peptide: KKLDTFFVKLSLFYER
B54: KKLDTFFVKLSLGTER (SEQ ID NO: 363) (peptide)
peptide: KKLDTFFVKLSLGTER
B55: KKLDTFFVKLSLHTER (SEQ ID NO: 364) (peptide)
peptide: KKLDTFFVKLSLHTER
B56: KKLDTFFVKLSLITER (SEQ ID NO: 365) (peptide)
peptide: KKLDTFFVKLSLITER
B57: KKLDTFFVKLSLLTER (SEQ ID NO: 366) (peptide)
peptide: KKLDTFFVKLSLLTER
B58: KKLDTFFVKLSLMTER (SEQ ID NO: 367) (peptide)
peptide: KKLDTFFVKLSLMTER
B59: KKLDTFFVKLSLNTER (SEQ ID NO: 368) (peptide)
peptide: KKLDTFFVKLSLNTER
B60: KKLDTFFVKLSLPTER (SEQ ID NO: 369) (peptide)
peptide: KKLDTFFVKLSLPTER
B61: KKLDTFFVKLSLQTER (SEQ ID NO: 370) (peptide)
peptide: KKLDTFFVKLSLQTER
B62: KKLDTFFVKLSLRTER (SEQ ID NO: 371) (peptide)
peptide: KKLDTFFVKLSLRTER
B63: KKLDTFFVKLSLSTER (SEQ ID NO: 372) (peptide)
peptide: KKLDTFFVKLSLSTER
B64: KKLDTFFVKLSLTTER (SEQ ID NO: 373) (peptide)
peptide: KKLDTFFVKLSLTTER
B65: KKLDTFFVKLSLVTER (SEQ ID NO: 374) (peptide)
peptide: KKLDTFFVKLSLVTER
B66: KKLDTFFVKLSLWTER (SEQ ID NO: 375) (peptide)
peptide: KKLDTFFVKLSLWTER
B67: KKLDTFFVKLSLYTER (SEQ ID NO: 503) (peptide)
peptide: KKLDTFFVKLSLYTER
B68: KKLDTFFVKLSMFTER (SEQ ID NO: 353) (peptide)
peptide: KKLDTFFVKLSMFTER
B69: KKLDTFFVKLSNFTER (SEQ ID NO: 354) (peptide)
peptide: KKLDTFFVKLSNFTER
B70: KKLDTFFVKLSPFTER (SEQ ID NO: 497) (peptide)
peptide: KKLDTFFVKLSPFTER
B71: KKLDTFFVKLSQFTER (SEQ ID NO: 355) (peptide)
peptide: KKLDTFFVKLSQFTER

Molecular target: T1, P3028 (VFDEFKPLVEEPQNLIK, SEQ ID NO: …)
Assay: PEPSCAN ELISA; peptide on chip, His-P3028 added;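 further: peroxidase color development with ABTS and H2O2 substrate, OD405 imaged by CCD camera with image processing and taken as raw values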

| Binder | RAMPO Score |
| --- | --- |
| B1 | 250 rampo units |
| B2 | 288 rampo units |
| B3 | 535 rampo units |
| B4 | 289 rampo units |
| B5 | 323 rampo units |
| B6 | 744 rampo units |
| B7 | 451 rampo units |
| B8 | 328 rampo units |
| B9 | 768 rampo units |
| B10 | 333 rampo units |
| B11 | 462 rampo units |
| B12 | 342 rampo units |
| B13 | 389 rampo units |
| B14 | 370 rampo units |
| B15 | 460 rampo units |
| B16 | 456 rampo units |
| B17 | 355 rampo units |
| B18 | 525 rampo units |
| B19 | 400 rampo units |
| B20 | 305 rampo units |
| B21 | 254 rampo units |
| B22 | 348 rampo units |
| B23 | 343 rampo units |
| B24 | 463 rampo units |

| Binder | RAMPO Score |
| --- | --- |
| B25 | 375 rampo units |
| B26 | 259 rampo units |
| B27 | 360 rampo units |
| B28 | 501 rampo units |
| B29 | 599 rampo units |
| B30 | 551 rampo units |
| B31 | 301 rampo units |
| B32 | 264 rampo units |
| B33 | 369 rampo units |
| B34 | 404 rampo units |
| B35 | 297 rampo units |
| B36 | 239 rampo units |
| B37 | 291 rampo units |
| B38 | 238 rampo units |
| B39 | 311 rampo units |
| B40 | 292 rampo units |
| B41 | 254 rampo units |
| B42 | 311 rampo units |
| B43 | 318 rampo units |
| B44 | 324 rampo units |
| B45 | 246 rampo units |
| B46 | 247 rampo units |
| B47 | 351 rampo units |
| B48 | 344 rampo units |

| Binder | RAMPO Score |
| --- | --- |
| B49 | 237 rampo units |
| B50 | 340 rampo units |
| B51 | 380 rampo units |
| B52 | 374 rampo units |
| B53 | 270 rampo units |
| B54 | 531 rampo units |
| B55 | 1050 rampo units |
| B56 | 468 rampo units |
| B57 | 448 rampo units |
| B58 | 1190 rampo units |
| B59 | 862 rampo units |
| B60 | 696 rampo units |
| B61 | 1140 rampo units |
| B62 | 502 rampo units |
| B63 | 635 rampo units |
| B64 | 494 rampo units |
| B65 | 446 rampo units |
| B66 | 430 rampo units |
| B67 | 291 rampo units |
| B68 | 499 rampo units |
| B69 | 462 rampo units |
| B70 | 297 rampo units |
| B71 | 651 rampo units |
